Measurements from patent US20130209454A1 (CALIFORNIA INSTITUTE OF TECHNOLOGY, published 2013).

How the values were obtained:
Experiment in all cases: cell-based or functional assay
[1] = target: HIV-1 Env of strain 1006_11_C3_1601 (HIV-1)
[2] = target: HIV-1 Env of strain 0815.v3.c3 (HIV-1)
[3] = target: HIV-1 Env of strain 3301.v1.c24 (HIV-1)
[4] = target: HIV-1 Env of strain Q769.d22 (HIV-1)
[5] = target: HIV-1 Env of strain CNE53 (HIV-1)
[6] = target: HIV-1 Env of strain WEAU_d15_410_787 (HIV-1)
[7] = target: HIV-1 Env of strain 6540.v4.cl (HIV-1)
[8] = target: HIV-1 Env of strain 703357.C02 (HIV-1)
[9] = target: HIV-1 Env of strain CNE20 (HIV-1)
[10] = target: HIV-1 Env of strain C2101.c01 (HIV-1)
[11] = target: HIV-1 Env of strain ZM233M.PB6 (HIV-1)
[12] = target: HIV-1 Env of strain 231966.c02 (HIV-1)
[13] = target: HIV-1 Env of strain T251-18 (HIV-1)
[14] = target: HIV-1 Env of strain QH0692.42 (HIV-1)
[15] = target: HIV-1 Env of strain ZM135M.PL10a (HIV-1)
[16] = target: HIV-1 Env of strain AC10.0.29 (HIV-1)
[17] = target: HIV-1 Env of strain Ce0393_C3 (HIV-1)
[18] = target: HIV-1 Env of strain 6535.3 (HIV-1)
[19] = target: HIV-1 Env of strain ZM214M.PL15 (HIV-1)
[20] = target: HIV-1 Env of strain Ce703010054_2A2 (HIV-1)
[21] = target: HIV-1 Env of strain PVO.4 (HIV-1)
[22] = target: HIV-1 Env of strain SC422661.8 (HIV-1)
[23] = target: HIV-1 Env of strain Ce2060_G9 (HIV-1)
[24] = target: HIV-1 Env of strain 6811.v7.c18 (HIV-1)
[25] = target: HIV-1 Env of strain R2184.c04 (HIV-1)

B1: NIH45-46 IgG (antibody, V domains shown)
VH: QVRLSQSGGQMKKPGESMRLSCRASGYEFLNCPINWIRLAPGRRPEWMGWLKPRGGAVNYARKFQGRVTMTRDVYSDTAFLELRSLTSDDTAVYFCTRGKYCTARDYYNWDFEHWGRGAPVTVSS
VL: EIVLTQSPATLSLSPGETAIISCRTSQSGSLAWYQQRPGQAPRLVIYSGSTRAAGIPDRFSGSRWGADYNLSISNLESGDFGVYYCQQYEFFGQGTKVQVDI
neutralization IC50 [1]: 0.027 µg/mL
neutralization IC50 [2]: 0.014 µg/mL
neutralization IC50 [3]: 0.009 µg/mL
neutralization IC50 [4]: 0.009 µg/mL
neutralization IC50 [5]: 0.008 µg/mL
neutralization IC50 [6]: 0.005 µg/mL
neutralization IC50 [7]: > 50 µg/mL
neutralization IC50 [8]: 19.2 µg/mL
neutralization IC50 [9]: 7.83 µg/mL
neutralization IC50 [10]: 4.24 µg/mL
neutralization IC50 [11]: 2.5 µg/mL
neutralization IC50 [12]: 1.64 µg/mL
neutralization IC50 [13]: 1.35 µg/mL
neutralization IC50 [14]: 0.72 µg/mL
neutralization IC50 [15]: 0.59 µg/mL
neutralization IC50 [16]: 0.56 µg/mL
neutralization IC50 [17]: 0.334 µg/mL
neutralization IC50 [18]: 0.23 µg/mL
neutralization IC50 [19]: 0.17 µg/mL
neutralization IC50 [20]: 0.159 µg/mL
neutralization IC50 [21]: 0.12 µg/mL
neutralization IC50 [22]: 0.06 µg/mL
neutralization IC50 [23]: 0.058 µg/mL
neutralization IC50 [24]: 0.035 µg/mL
neutralization IC50 [25]: 0.034 µg/mL
